Laboratory results taken from the nanobody polyreactivity screen of Harvey et al. (2022).

Test: yeast display, Sf9 membrane polyspecificity reagent, FACS + sequencing; frameworks hold sequencing errors
How it was run: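 A nanobody's polyreactivity label depends on the gate it was sorted from. Yeast display cells were stained with 10% biotinylated, detergent-solubilized Sf9 membrane reagent for 1 hour at 4 °C, enriched on streptavidin microbeads and sorted by FACS. The low and high (top ~1%) gates were set on anti-HA fluorescence for expression and streptavidin fluorescence for reagent binding.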

Row | Sequence | polyreactivity (PSR sort gate)
1 | QVQLVESGGGLVQAGGSLRLSCAASGSIFYSYAMGWYRHAPGKERELVAAISWDASTYYADSVKGRFTISRDNAKNTVYLQMNSLKPEDTAVYYCNADIPYYFVYDAYDFWGQGTQVTVSS | low polyreactivity
2 | QVQLVESGGGLVQEGGSLRFSCAASGSTFHSYAMGWYRQAPGKERELVAAISTSGGTTYYADSVKGRFTISRDNAKNTVYLQMNSLKPEDTAVYYCAARRVTSPFGTDSWGQGTQVTVSS | low polyreactivity
3 | QVQLVESGGGLVQAGGSLRLSCAASGSIFQSYAMGWYIQAPGKERELVAAISARGGTTNYADSVKGRFTISRDNAKNTVYLQMNSLKPEDTAVYYCAKVYRYGYSKYYYWGQGTQVTVSS | high polyreactivity
4 | QVQLVESGGGLVQAGGSLRLSCAASGRTFRANAMGWYRQAPGKERDLVAAITWDGGSTYYADSVKGRFTISRDNAKNTVYLQMNSLKPEDTAVYYCNTDPYLWGQGTQVTVSS | low polyreactivity
5 | QVQLVESGGGLVQAGGSLRLSCAASGSTFYINAMGWYRQAPGKERELVAAISWSGGSTYYADSVKGRFTISRDNAKNTVYLQMNSMKPEDTAVYYCAADWYLGWSLDYDYWGQGTQVTVSS | low polyreactivity
6 | QVQLVESGGGLVQAGGSLRLSCAASGRIFYLNAMGWYRVAPGKERELVAAITRSAASTHYADSVKGRFTISRDNAKNTVYLQMNSLKPEDTAVYYCAARFWYDYRHYDYWGQGTQVTVSS | low polyreactivity
7 | QVQLVESGGGLVQAGGSLRLSCAASGFTILRYAMGWYRQAPGKERDLVAAISTSGGSTSYADSVKGRFTISRDNAKNTVYVQMYSLKPEDSAVYYCKAVLYKAYWQLYDYWGQGSQVTVSS | high polyreactivity
8 | QVQLVESGGGLVQAGRSLRLSCAASGFPFYQYAMGWYRQAPGQERELVAAITWSRGDTYYADSVKGRFTISRDNAKNTVYLQMNSLKPEDSAVFNCNADDRPRGPYYDSFDYRGDYWGQGTQVTVSS | low polyreactivity
9 | QVQLVESGGGLVQAGGSLRLSCAASGNIFRVYDMGWYRQAPGKERELVATITSGGRTYYADSVKGRFTISRDNAKNTVYLQMNSLKPEDTAVYYCNVDVKGRPTFWSPFGRFDYWGQGTQVTVSS | high polyreactivity
10 | QVQLVESGGGLVQAGGSLRLSCAASGSIFKSYAMGWYRQAPGKERELVAAITWRSGRTYYADSVKGRFTISRDNAKNTVYLQMNSLKPEDTAVYYCAADDTSYYIYSYDYWGQGTQVTVSS | low polyreactivity
11 | QGQLVESGGGLVQAGGSLRLSCAASGSTFVYYARGWYRQAPGKEREMVAAIRYSGASTYYADSVKGRFTISRDNAKNTVYLQMNSLKPEDTAVYYCAAQPTTRRVPRFSSRARHYYWGQGTQVTVSS | high polyreactivity
12 | QVQLVESGGGLVQAGGSLRLSCAASGLIFGYNAMGWYRQAPGKERELVAAISWSGGRTYYADSVKGRFTISRDNAKNTVYLQMNSLKPEDTAVYYCAAVVRHSYFRDDHWGQGTQVTVSS | high polyreactivity
13 | QVQLVESGGGLVQAGGSLRLSCAASGRIFGGYAMGWYRQAPGKERELVASITGGGTTDYADSVKGRFTISRDNAKNTVYLQMNSLKPEDTAVYNCAIRTHQFGVSRSYNTYYYWGQGTQVTVSS | low polyreactivity
14 | QVQLVESGGGLVQAGGSLRLSCAASGSTFGWYTMGWYRQAPGKERELVAAISSGGRTYYADSVKGRFTISRDNEKNTVYLQMNILKPEDTAVYYCAAGIYSSRHSPYGYWGQGTQVTVSS | high polyreactivity
15 | QVQLVESGGGLVQAGGSLRLSCAASGRTFYGYTMGWYRQAPGKERELVAAISTGGGSTYYADSVKGRFTISRDNAKNTVYLQMNSLKPEDTEVYYCAARGGSYSFRRYNYWGQGTQVTVSS | high polyreactivity
16 | QDQLVESGGGLVQAGGSLRLSCAASGRTIKTYAMGWYRQAPGKVRELVAAIRRRGGSTYYADSVKGRFTISRDNAKNTVYLQMHSLKPEDTAVYYCAAGYVTYRDAHVSMDYCGQGTQVTVSS | high polyreactivity
17 | QVQLVETGGGLVQARGSLRLSCAASGRTLPDNAMGWSRQAPGNESELVAAITTSGGSTYYADSVMGRFTISRDNAQNTVYLQLNSLKPEDTAVYYCAADIWQYSLIANYHPYDYWGQGTQVTVSS | low polyreactivity
18 | QVQLVESGGGLVQAGGSLRLSCAASGLTFGGNAMGWYSQAPGKERELVAALSWSDDTTDYADSVKGRFTISRDNAKYTVYLQMNSLKPEDTAVYYCAARLPFEHVDYWGQGTQVTVSS | low polyreactivity
19 | QVQLVESGGGLVQAAGSLRLSCAASGSTFDNKVMGWYRQAPGKERELVATITWGDGSTSYADSVKGRFTISRDIAKNTVYLELNSRKREDTAVYFCAAGEYYHRIFLWYVYWGQGTKVTVSS | low polyreactivity
20 | QVQLVESGGGLVQAGGSLRLSCAASGRTFVSNAMGWYRQAPGKERELVATITVSSDSTYYADSVKGRFTISRDNAKNTVYLQMNSLKPEDTAVYYCAARNPTWSFQFDYWGQGTQVTVSS | low polyreactivity
21 | QVQLVESGGGLVQAGGSLRLSCAASGSTFGRYAMGWYRQAPGKERELFAAISWSGGSTYYADSVKGRFTISRDNAKNTVYLQMNSLKPEDTAVYYCNKAGIYIYGSYYWGQGTQVTVSS | high polyreactivity
22 | QVQLVESGGGLVQAGGSLRLSCAASGFIFTDYAMGWYRQAPGKERELVAAISSGGRTYYAVSVKGRFTISRDNAKNTVYIQMNSLKPEDTAVYYCARGGRAEGWGQGTQVTVSS | high polyreactivity

Row | Sequence | polyreactivity (PSR sort gate)
23 | QVQLVESGGGLVQAGGSLRLSCAASGYAKGWYRQAPGKESELDAAITSNGGRTYYADSVKGRFTISRDNAKNTVYIQMNSLKPEDTAVYYCATRSGPHYKTRWTYDLGYWGQGSQVTVSS | low polyreactivity
24 | QVQLVESGGGLVQAGGSLRLTCAASGRTFVNYAMGWYRQAPGKERELVAAISTSGGSTYYADSVKGRFTISRDNAKNTVYLQMNSLKPEDTAVYYCNKVRYLPDNLRQVTFDYWGQGTQVTVSS | low polyreactivity
25 | QVQLVESGGGLVQAGGSLRLSCAASGRIYLGNVMGWYRQAPGKERELVAAISWSAGSTYYSDSVKGRFTISRDNAKITVYLQMNSLKPEDTAVYYCAAVYLWWSYEFDYWGQGTQVTVSS | low polyreactivity
26 | QDQLVESGGGLVQAGGSLRLSCAASGFTYEKYAMGSYRTAPGKERELVASISWSGGRTRYADSVMGRFTISRDNAKNTVYLQMNSLKPEDTAVYYCAARGAYKSAYNRNEYWGQGTQVTVSS | high polyreactivity
27 | QVQLVESGGGLVQAGGSLRLSCAASGFIFLINAMGWYRQAPGKERELVAGITSGGGNTYYADSVKGRFTISRDNAKNTVYLQMYSLKPEDTAVFYCAARLFDYWGQGTQVTVSS | low polyreactivity
28 | QVQLVESGGGLVQAGGSLRLSCAASGSIFYTNAMGWYRQAPGKERELVAAIRWSGGRTYYADSVKGRFTISRDNAKNTVYLQMNSLKPEDTAVYYCNKVPRTPIPYKYGYWGQGTQVTVSS | high polyreactivity
29 | QVQLVESGGGLVQAGGSLRLSCAASGRTFYGNAMGWYRQAPGKERELVAAINRDGGTYYADSVKGRFTISRDNAKNTVYLQMNSLKPEDTAVYYCNAVKRGIRYGYWGQGTQVTVSS | high polyreactivity
30 | QVQLVESGGGLVQAGGSLRLSCAASGFISPYAMRWYRQAPGKERELVAVITSSGGSTYYADSVKGRFTISRDNAKNTVYLQMNSLKPEDTAVYYCAARFYFRWYYYGSYANYWGQGTQVTVSS | high polyreactivity
31 | QVQLEESGGCLVQAGGRIRLSCAASGSIFGYYAMGWYRQAPGKERELVADISYTGVSTYYADSVKGRFTISRDNAKNTVYLQMNSLKPEDTAVYYCAADWVYPDYSWYSYTDFDYWGQGTQVTVSS | low polyreactivity
32 | QVQLVESGGGLVQAGGSLRLSCAASGSIFYQYAMGWNRQAPGKERELVAVINRSGSSTYYADSVKGRFTISRDNAKNTVYLQMNSLKPEDNAVYYCAAASKYSEYNYWGQGTEVTVSS | high polyreactivity
33 | QVQLVESGGGLVQAGGSLRLSCAASGRIFPHNAMGWYRQAPGTERELVAAISSNVGSTYYADSVKGRFTISRDNAKNTVYFQMNSLKPEDTAVYYCAKYRYFAGDGDYWGQGTQVTVSS | low polyreactivity
34 | HVQLVQSGGGLVQAGGSLRLSCAASVYTFVYYAIGWYRQATGKERELVAAITSRAGRTYYADSVKGRFTISRDNAKNTVYLQMNSLKPEDTAVYYCNAASTKITRFDYWGQGTQVTVSS | high polyreactivity
35 | QVQLVESGGGLVQAGGSLRLSCAASGRIFGTYAMGWYRQAPGKERELVAAISFRGGSTYYADTVNGRFTISRDNAKNTVYLQMNCLKPEDTAVYYCNARKRYSTDPGDYWGQGTQVTVSS | high polyreactivity
36 | QVQLVESGGGLVQAGGSLRLSCAASGSTFYGNAMGWYRQAPGKERELVAAITGDGGSTYYADSVKGRFTISRDNAKNTVYLQMNSLKPEDTAVYYCAVDVIVLGQWPGQLDEFDYWGQGTQVTVSS | low polyreactivity
37 | QVQLVESGGGLVQAGGSLRLSCAASGRTFTSYAMGWYRQAPGKERELVAAITRGGRTNYADSVKGRFTISRDNAQNTVYLQMNSLKPEDTAVYYCNADGPGYAAKYYWKYDYWGQVTQVTVSS | low polyreactivity
38 | QVQLVESGGGLVQAGGSLRLSCAASGYTFDKYAMGWYRPAPGKERELVAAITDGGSTNYADSVKGRFTISRDNAKNTVYLQMNSLKPEDTAVYYCNDELQWEVYYDRYPEYDHWGQGTQVTVSS | low polyreactivity
39 | QGQLVESGGGLVQAGGSLRLSCAASGSIFPRYVMGWYRQAPGKERELVAAITTSGGRTYYADSVKGRFTISRDNAKKTVYLQMNSQKPVDTAVYYCAARPWGYRYGSEYVGGDYWGQGTQVTVSS | high polyreactivity
40 | QVQLVESGGGLVQAGGSLRLSCAASGYIFLANAMGWYRQAPGKERELVAAITSGGGGTYYADSVKGRFTISRDNAKNTVYLQMNSLKPEDTAVYYCAADHGRDGSSFEYWGQGTQVTVSS | low polyreactivity
41 | QVQLVESGGGLVQAGGSLRLSCSASGTFYGYAMAWSRQAPGKERELVASSTWGGGRTYYADSVKGRFTTSRDNAKNTVYLQMNSLKPEDTAVYYCATRSRPQYNKYDYWGQGTQVTVSS | high polyreactivity
42 | QVQIVESGGGLVQAGGSLRLSCAASGSIIYRNAMGWYRQAPGKERELVAAIRTSSGSTYYAVSVKGRFTISRDNAKNTVYLQMNSLKPVDTAVYYCGAPRLYGYYSCGQGTQVTVSS | low polyreactivity
43 | QVQLVESGGGLVQAGGSLRLSCAASGYIFHRYAMGWYRQAPGKEREFVAAIRWSGGSTYYADSVKGRFTISRDNAKNTVYLQMNSLKPEDTAVYYCAADKYVLGYYYGQYDYWGQGTQVTVSS | low polyreactivity
